Data set [1] has as its target mouse VE-cadherin EC1-2, wild type (mouse). The experiment in a line: AUC.
In data set [2] the target is human VE-cadherin EC1-5 ectodomain, wild type, glycosylated (human). The experiment in a line: AUC.
Data set [3] deals with chicken VE-cadherin EC1-2, wild type (chicken). The experiment in a line: AUC.
Data set [4] deals with mouse cadherin-10 EC1-2, wild type (mouse). The experiment in a line: AUC.
In data set [5] the target is mouse cadherin-9 EC1-2, wild type (mouse). The experiment in a line: AUC.
The target of data set [6] is human VE-cadherin EC3-4, wild type, bacterially produced (human). The experiment in a line: SEC. For orientation: In gel filtration, larger molecules generally elute earlier.
For data set [7] the target is unchanged. The experiment in a line: AUC.
For data set [8], the target named is human VE-cadherin EC1-2, wild type (human). The experiment in a line: AUC.
The data set “AUC” deals with the molecule itself. The experiment in a line: AUC.

The molecule “mouse VE-cadherin EC1-2, wild type (domain or fragment)” gave a Kd in data set [1] of 2.22 µM.

“human VE-cadherin EC1-5 ectodomain, wild type, glycosylated (domain or fragment)” registered an equilibrium dissociation constant (Kd) in data set [2] of 1.03 µM. Turning to “chicken VE-cadherin EC1-2, wild type (domain or fragment)”, the Kd in [3] came to 1.63 µM. Molecule “mouse cadherin-10 EC1-2, wild type (domain or fragment)” yielded a Kd in data set [4] of 42.2 µM. On to “mouse cadherin-9 EC1-2, wild type (domain or fragment)”, for which, in [5], the Kd worked out at 17 µM. Molecule “human VE-cadherin EC3-4, wild type, bacterially produced (domain or fragment)” showed a stoichiometry N in [6] of 2. The molecule further showed a dissociation constant (Kd) in data set [7] of 1.93 µM. The molecule “human VE-cadherin EC1-2, wild type (domain or fragment)” had a dissociation constant (Kd) in data set [8] of 4.38 µM.

B1: chicken cadherin-6b EC1-2, wild type (domain or fragment)
chain: SWMWNQFFLLEEYTGTDYQYVGKLHSDQDKGDGSLKYILSGDGAGDLFIINENTGDIQATKRLDREEKPVYILRAQAINRRTGRPVEPESEFIIKIHDINDNEPMFTKDVYNASIPEMSDVGTFVVQVTATDADDPTYGNSAKVVYSILQGQPYFSVESETGIIKTALLNMDRENREQYQVVIQAKDMGGQMGGLSGTTTVNITLTDVNDNPPRF
Molecule B1 returned a Kd in “AUC” of 9.2 ± 0.6 µM.

B2: chicken VE-cadherin EC1-5 ectodomain, wild type, glycosylated (domain or fragment)
chain: DWIWNRMHIREEIDSPLPHHVGKLTSSVGNKNAMYIIEGESANTIFKVQGYDGDIYAFERLDREKKAEYELTAHIIDRRNNRSLEPPSKFIIKVSDINDNAPIFVQKIFNGSVPEMSRLGTSVTKVTAEDADDPTVAGHATVTYQIIKGNEYFTVDDSGVIFTARADLDRESQSAYEIIVKAKDALGLTGESSTATVIIRLTDINDNFPVFKHPSFHFRVPENISVGGEVGRVKVEDIDEPQHRNTKYSFVRGDYRDTFEIIANPFTNEGIIRPKKPLDFEKVAEYRFDIEATDHNVNPAYYKPGGSRSISTITIEVTDVDEPPVFTKLSYEFKVRENDPEIKTLGSVWAHDPDAAKRKIRFARRRASPNGDYVRVSDSGIIQLPKPLDREFSSLYNITVAAQEILEDGRLSDRESHAQVHVIVTDENDNAPELVYPEEPRVCENAAPGKVIIRISATDKDEISPGGFFTYSLTTEDSNFSLTENPDNTANITVKDGQFNRELAKIHYLPVIISDNGNPELSSTNTLVISVCKCNEKGDFTFCEE
modifications: glycosylated (N-linked and O-linked sugar)
In the case of B2, the Kd in the data set “AUC” was found to be 1.14 ± 0.04 µM.

B3: mouse cadherin-11 EC1-2, wild type (domain or fragment)
chain: GWVWNQFFVIEEYTGPDPVLVGRLHSDIDSGDGNIKYILSGEGAGTIFVIDDKSGNIHATKTLDREERAQYTLMAQAVDRDTNRPLEPPSEFIVKVQDINDNPPEFLHEIYHANVPERSNVGTSVIQVTASDADDPTYGNSAKLVYSILEGQPYFSVEAQTGIIRTALPNMDREAKEEYHVVIQAKDMGGHMGGLSGTTKVTITLTD
B3 yielded a Kd in “AUC” of 33.8 ± 0.2 µM.

B4: mouse cadherin-8 EC1-3, wild type (domain or fragment)
chain: GWVWNQMFVLEEFSGPEPILVGRLHTDLDPGSKKIKYILSGDGAGTIFQINDITGDIHAIKRLDREEKAEYTLTAQAVDFETNKPLEPPSEFIIKVQDINDNAPEFLNGPYHATVPEMSILGTSVTNVTATDADDPVYGNSAKLVYSILEGQPYFSIEPETAIIKTALPNMDREAKEEYLVVIQAKDMGGHSGGLSGTTTLTVTLTDVNDNPPKFAQSLYHFSVPEDVVLGTAIGRVKANDQDIGENAQSSYDIIDGDGTALFEITSDAQAQDGVIRLRKPLDFETKKSYTLKVEAANIHIDPRFSSRGPFKDTATVKIVVEDADEPPVF
In the data set “AUC”, B4 showed a dissociation constant (Kd) of 15 ± 0.4 µM.

As a reminder, the Kd is a measure of binding affinity in units of concentration. Low readings indicate tighter binding, high ones weaker binding. The stoichiometry N is a count of units in the complex or per binding partner.
